According to the supplement of paper PMC10567573:

B1: PTPRD (parent)
chain: PVVSMDLDPQPITDEEEGLIWVVG

Variants of: B1
Experiment: protein stability index of a GFP-peptide fusion (GPS, HEK-293T) (PSI 1-6); higher = more stable
Conditions: c terminus: a fixed tail appended
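Further: lentivirally expressed fusions sorted by FACS into six bins by GFP to DsRed ratio, PSI derived from sequencing read proportions per bin multiplied by bin number.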

Protein stability index of substitutions, site by site:
D14: I 4.15 | M 2.36 | R 2.31 | S 4.05 | F 2.14 | C 2.9 | G 3.87 | L 2.06 | E 3.78 | Y 2.27 | A 2.58 | N 3.9
E17: L 2.56 | D 4.26 | I 1.8 | M 1.69 | Q 4.18 | Y 1.38 | V 1.75 | G 3.34 | K 3.12 | T 3.31 | A 2.26 | P 2.38 | R 2.75 | C 2.25 | N 3.37 | S 2.88
D8: E 3.92 | H 2.1 | L 3.31 | C 2.61 | V 3.25 | T 3.61 | N 3.55 | I 2.53 | A 3.73 | Y 2.74 | G 3.8 | P 3.56 | M 3.29 | W 2.52
Q10: T 3.73 | D 4.27 | C 3.08 | A 3.56 | I 4.09 | S 2.77 | N 3.42 | P 3.75 | R 3.89 | L 3.74 | G 3.99 | K 3.76 | Y 2.92 | W 3.8 | M 3.88
E15: T 2.33 | C 3.25 | S 2.9 | K 3.16 | G 3.21 | N 3.67 | R 3.57 | W 1.61 | Q 3.77 | P 3.19 | D 2.31
D6: Q 3.5 | V 2.7 | Y 2.25 | T 3.25 | N 4.53 | P 3.48 | S 3.4 | W 1.94 | R 3.67
L7: M 3.29 | I 3.94 | H 3.48 | S 4.33 | R 4.4 | P 3.4 | C 3.54 | V 4.01 | F 4.79 | T 2.63 | A 4.31 | W 3.52 | G 4.87 | Y 4.27 | E 4.89 | N 4.74
T13: N 3.87 | I 2.71 | W 2.47 | D 4.13 | C 3.84 | L 3.07 | V 3.58 | A 3.87 | Y 2.9 | P 3.36 | S 3.13
G18: C 2.63 | N 4.42 | K 3.72 | D 4.59 | P 3.19 | Q 3.37 | L 3.16 | M 2 | R 3.28 | H 3.52 | E 4.22 | S 3.98
I12: L 3.95 | S 3.64 | D 4.52 | H 4.07 | F 2.78 | V 4.28 | K 4.84 | R 4.74 | E 4.94 | M 3.75 | N 4.28 | C 3.66 | Y 2.86 | G 4.49
E16: F 1.07 | C 1.94 | A 3.22 | Y 2.79 | H 3.2 | P 2.79 | T 2.87 | W 2.27 | V 1.5 | Q 3.79 | S 3.36 | D 4.08
P9: K 3.71 | T 4.18 | R 3.58 | C 3.67 | F 1.93 | D 4.52 | V 3.19 | W 2.96 | A 2.88 | G 4.54 | Y 3.41 | Q 4.05 | N 4.12 | I 3.23
P11: M 4.27 | F 3.25 | I 2.93 | A 4.67 | C 3.36 | N 3.36 | K 3.68 | H 3.8 | T 3.77 | Y 2.67 | Q 4.39
